Experimental data: the supplement of paper PMC10065799, “High-throughput profiling of sequence recognition by tyrosine kinases and SH2 domains using bacterial peptide display” (eLife, 2023)

Biological target: SHP2-C SH2
Assay: SH2 binding enrichment of the phosphorylated peptide, bacterial display (enrichment ratio); higher = better substrate or ligand; peptides without Tyr show the background
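Note: peptide library displayed on the E. coli surface as eCPX fusions, selected cells deep-sequenced, score is each peptide's frequency after selection divided by its frequency in the input.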

Sequence | SH2 binding enrichment
GFKVRYATGSI [FGFR1_Y210_W213G_YF] | 1
KLADMYGGGKD [CDH1_Y876_E880K] | 0.376
HTKKNYGNSSV [HDX_Y197_A193T] | 0.647
TCFDKYTGSTF [FN1_Y101_N104S_YF] | 0.956
GMAHNYRNSSQ [AASS_Y188] | 0.57
RKLVDYDSAQH [BIN1_Y150_R154Q] | 0.607
KALKQYRASPS [DDX27_Y763_G766S] | 0.691
GDLTDYLMKIL [ACTA1_Y190_R185G] | 1.19
ISIFYYAKGQP [MPZ_Y82_H81Y] | 0.656
PAVGIYNDNIN [CDCP1_Y707] | 0.729
KAEELYIGVTV [EFHC2_Y509] | 0.756
ETGEPYRLSPE [EIF4G1_Y311] | 0.75
LAVGDYMRRQK [ATM_Y1915_V1913G] | 0.695
ADKAAYLQNLN [MYH1_Y389] | 0.73
RKQQLYIAMEE [CCDC39_Y593_T594I] | 0.909
NVTRKYTRQIL [MAP3K2_Y463] | 0.644
KVDKEYEVHVR [GHR_Y226_R229H] | 0.566
GEDLSYGDLPP [IRS1_Y151_V154L] | 0.788
GKGGSYSKAEW [HLA-E_Y341] | 0.512
KIRDWYQRQRP [KRT14_Y151] | 0.744

More lines, now with the values ahead:

SH2 binding enrichment | Sequence
0.56 | ECKASYPGKIT [PRSS3_Y232]
0.72 | EFITRYIASLK [PSMA7_Y110_YF]
0.711 | DEQKKYYNAMK [SCN5A_Y1494_E1489D]
0.725 | QNTGDYYDLYG [PTPN11_Y62]
0.491 | QNTGDYCDLFG [PTPN11_Y62_Y63C_YF]
1.22 | MTYVFYRENLR [NLRP14_Y443]
0.836 | CTTIHYNFMHN [TP53_Y234_C238H_YF]
0.901 | SDFSRYARTSI [TERT_Y949_S948R_YF]
0.803 | QNTGDDYDLYG [PTPN11_Y62_Y62D]

Biological target: c-Src SH2
Assay: as above

Sequence | SH2 binding enrichment
GFKVRYATGSI [FGFR1_Y210_W213G_YF] | 0.706
KLADMYGGGKD [CDH1_Y876_E880K] | 0.412
HTKKNYGNSSV [HDX_Y197_A193T] | 0.532
TCFDKYTGSTF [FN1_Y101_N104S_YF] | 0.82
GMAHNYRNSSQ [AASS_Y188] | 0.482
RKLVDYDSAQH [BIN1_Y150_R154Q] | 0.541
KALKQYRASPS [DDX27_Y763_G766S] | 0.537
GDLTDYLMKIL [ACTA1_Y190_R185G] | 0.711
ISIFYYAKGQP [MPZ_Y82_H81Y] | 0.409
PAVGIYNDNIN [CDCP1_Y707] | 0.481
KAEELYIGVTV [EFHC2_Y509] | 0.411
ETGEPYRLSPE [EIF4G1_Y311] | 0.572
LAVGDYMRRQK [ATM_Y1915_V1913G] | 0.37
ADKAAYLQNLN [MYH1_Y389] | 0.39
RKQQLYIAMEE [CCDC39_Y593_T594I] | 0.938
NVTRKYTRQIL [MAP3K2_Y463] | 0.477
KVDKEYEVHVR [GHR_Y226_R229H] | 0.52
GEDLSYGDLPP [IRS1_Y151_V154L] | 0.622
GKGGSYSKAEW [HLA-E_Y341] | 0.624
KIRDWYQRQRP [KRT14_Y151] | 0.523

The next lines start with the values.

SH2 binding enrichment | Sequence
0.557 | ECKASYPGKIT [PRSS3_Y232]
0.873 | EFITRYIASLK [PSMA7_Y110_YF]
0.621 | DEQKKYYNAMK [SCN5A_Y1494_E1489D]
0.849 | QNTGDYYDLYG [PTPN11_Y62]
0.723 | QNTGDYCDLFG [PTPN11_Y62_Y63C_YF]
0.72 | MTYVFYRENLR [NLRP14_Y443]
0.85 | CTTIHYNFMHN [TP53_Y234_C238H_YF]
0.476 | SDFSRYARTSI [TERT_Y949_S948R_YF]
0.58 | QNTGDDYDLYG [PTPN11_Y62_Y62D]
